Results taken from the supplement of paper PMC10126150.
± gives the standard deviation of the averaged measurements.

System: ATP
Assay: switch fluorescence ratio, 500 uM ATP over buffer (Cy3 cluster intensity, sum of 5 cycles each) (fold (ratio)); higher = stronger signal-on switching upon ATP binding; sequences stand for … in TCGTCGGCAGCGTCAGATGTGTATAAGAGACAGTTTTTTTTTTTTTTTTTTTTTTTTT…TC
Conditions: aptamer strand: ATP DNA aptamer (quencher-CACCTGGGGGAGTATTGCGGAGGAAGG + anchor), 100 nM annealed; ATP concentration: 500 uM
Summary of the method: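 Cy3-labelled switching-strand clusters on a modified Illumina MiSeq flow-cell were annealed to 100 nM quencher-labelled ATP aptamer and imaged first in selection buffer, then after 15 min with 500 uM ATP at 22 °C. NaOH stripping and re-annealing separated each of five buffer/ATP cycles, and clusters outside 100-1000 RFU were excluded. The fluorescence ratio sums target-cycle Cy3 intensity over buffer-cycle Cy3 intensity per cluster and averages it per switch-domain sequence.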
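Note: ATP exposure 15 min at 22 °C before imaging.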

GTTTCAGGCT
switch fluorescence ratio: 0.9888 ± 0.0041

GTTTCGAGTA
switch fluorescence ratio: 0.957 ± 0.049

GTTTCGGGCT
switch fluorescence ratio: 1.01 ± 0.012

GTTTCGGGTT
switch fluorescence ratio: 0.986 ± 0.019

GTTTCGGTGG
switch fluorescence ratio: 0.986 ± 0.085

GTTTCGTGGG
switch fluorescence ratio: 0.976 ± 0.031

GTTTCGTTTC
switch fluorescence ratio: 1.01 ± 0.025

GTTTCTATGG
switch fluorescence ratio: 0.9961 ± 0.0085

GTTTCTGGCC
switch fluorescence ratio: 0.98 ± 0.019

GTTTCTGGGG
switch fluorescence ratio: 0.971 ± 0.052

GTTTGAAAGT
switch fluorescence ratio: 0.957 ± 0.01

GTTTGAAATT
switch fluorescence ratio: 1.03 ± 0.09

GTTTGAAGCC
switch fluorescence ratio: 1.04 ± 0.078

GTTTGAAGCG
switch fluorescence ratio: 1 ± 0.054

GTTTGAAGGG
switch fluorescence ratio: 0.974 ± 0.05

GTTTGAAGGT
switch fluorescence ratio: 1.01 ± 0.011

GTTTGAATGT
switch fluorescence ratio: 0.97301 ± 0.0004

GTTTGATGGG
switch fluorescence ratio: 0.981 ± 0.033

GTTTGCCATG
switch fluorescence ratio: 0.998 ± 0.047

GTTTGCCTCC
switch fluorescence ratio: 1.03 ± 0.021

GTTTGCGTTG
switch fluorescence ratio: 0.979 ± 0.042

GTTTGCTACG
switch fluorescence ratio: 1.005 ± 0.004

GTTTGCTGTT
switch fluorescence ratio: 0.9931 ± 0.0089

GTTTGGCCAT
switch fluorescence ratio: 1.02 ± 0.02

GTTTGGGAGG
switch fluorescence ratio: 0.963 ± 0.01

GTTTGGGGAT
switch fluorescence ratio: 0.972 ± 0.022

GTTTGGGTCT
switch fluorescence ratio: 0.997 ± 0.013

GTTTGGTTAT
switch fluorescence ratio: 0.995 ± 0.012

GTTTGTATAG
switch fluorescence ratio: 1 ± 0.03

GTTTGTATTA
switch fluorescence ratio: 0.996 ± 0.011

GTTTGTATTT
switch fluorescence ratio: 1 ± 0.017

GTTTGTGAAT
switch fluorescence ratio: 0.9814 ± 0.0086

GTTTGTGCAT
switch fluorescence ratio: 1.025 ± 0.0083

GTTTGTGGCG
switch fluorescence ratio: 0.959 ± 0.024

GTTTGTTGTT
switch fluorescence ratio: 0.9819 ± 0.0016

GTTTGTTTGG
switch fluorescence ratio: 0.974 ± 0.023

GTTTTAAATG
switch fluorescence ratio: 0.975 ± 0.016

GTTTTAATTT
switch fluorescence ratio: 0.988 ± 0.019

GTTTTACCGG
switch fluorescence ratio: 1 ± 0.022

GTTTTACGGA
switch fluorescence ratio: 1.003 ± 0.0065

GTTTTATGGG
switch fluorescence ratio: 0.969 ± 0.038

GTTTTCAACA
switch fluorescence ratio: 0.98916 ± 0.00045

GTTTTCCACA
switch fluorescence ratio: 0.987 ± 0.067

GTTTTCGACT
switch fluorescence ratio: 1.04 ± 0.0095

GTTTTCGAGC
switch fluorescence ratio: 1.11 ± 0.043

GTTTTCGTGG
switch fluorescence ratio: 0.995 ± 0.021

GTTTTGAATT
switch fluorescence ratio: 1 ± 0.04

GTTTTGAGTT
switch fluorescence ratio: 1 ± 0.021

GTTTTGATTA
switch fluorescence ratio: 0.973 ± 0.017

GTTTTGGGAC
switch fluorescence ratio: 0.993 ± 0.027

GTTTTGGTCC
switch fluorescence ratio: 0.997 ± 0.012

GTTTTGTGGG
switch fluorescence ratio: 0.968 ± 0.034

GTTTTGTTTG
switch fluorescence ratio: 0.9553 ± 0.0016

GTTTTTAAGG
switch fluorescence ratio: 1.02 ± 0.032

GTTTTTCCAT
switch fluorescence ratio: 1 ± 0.024

GTTTTTCCTG
switch fluorescence ratio: 0.981 ± 0.055

GTTTTTCTTC
switch fluorescence ratio: 0.9923 ± 0.0058

GTTTTTGCGG
switch fluorescence ratio: 0.9784 ± 0.0044

GTTTTTGGTT
switch fluorescence ratio: 1 ± 0.028

GTTTTTGTGT
switch fluorescence ratio: 0.987 ± 0.025

GTTTTTTTAT
switch fluorescence ratio: 0.987 ± 0.02

GTTTTTTTGC
switch fluorescence ratio: 0.9766 ± 0.006

GTTTTTTTTG
switch fluorescence ratio: 0.999 ± 0.029

TAAAAAAAAT
switch fluorescence ratio: 1.02 ± 0.033

TAAAAAAAGA
switch fluorescence ratio: 0.999 ± 0.046

TAAAAAAAGC
switch fluorescence ratio: 1.031 ± 0.0015

TAAAAAAGAA
switch fluorescence ratio: 0.97 ± 0.03

TAAAAAATTC
switch fluorescence ratio: 1.03 ± 0.04

TAAAAAGACC
switch fluorescence ratio: 0.976 ± 0.035

TAAAAAGCAT
switch fluorescence ratio: 1.007 ± 0.0031

TAAAAAGCGG
switch fluorescence ratio: 1.01 ± 0.054

TAAAAATTCA
switch fluorescence ratio: 1.009 ± 0.0021

TAAAAATTGC
switch fluorescence ratio: 1.02 ± 0.048

TAAAACGATC
switch fluorescence ratio: 0.966 ± 0.036

TAAAACGGTG
switch fluorescence ratio: 1.05 ± 0.029

TAAAACTTGG
switch fluorescence ratio: 0.999 ± 0.065

TAAAACTTTT
switch fluorescence ratio: 1.02 ± 0.043

TAAAAGAACT
switch fluorescence ratio: 1.03 ± 0.038

TAAAAGATCG
switch fluorescence ratio: 1.03 ± 0.034

TAAAAGCAAT
switch fluorescence ratio: 2.1 ± 0.9

TAAAAGCTAA
switch fluorescence ratio: 1 ± 0.031

TAAAAGGGAA
switch fluorescence ratio: 1.01 ± 0.024

TAAAAGGGAC
switch fluorescence ratio: 1.01 ± 0.028

TAAAAGGTCC
switch fluorescence ratio: 1.04 ± 0.038

TAAAAGTCTA
switch fluorescence ratio: 0.9999 ± 0.0094

TAAAATACGT
switch fluorescence ratio: 0.995 ± 0.042

TAAAATATTA
switch fluorescence ratio: 1.03 ± 0.02

TAAAATGGGT
switch fluorescence ratio: 0.996 ± 0.03

TAAAATTAGT
switch fluorescence ratio: 0.9938 ± 0.0073

TAAAATTATG
switch fluorescence ratio: 0.974 ± 0.019

TAAAATTCGA
switch fluorescence ratio: 0.9784 ± 0.0059

TAAAATTGGT
switch fluorescence ratio: 0.983 ± 0.027

TAAAATTTTA
switch fluorescence ratio: 0.988 ± 0.023

TAAACAGCTG
switch fluorescence ratio: 0.955 ± 0.043

TAAACATCAC
switch fluorescence ratio: 1.164 ± 0.011

TAAACGCTGG
switch fluorescence ratio: 0.999 ± 0.014

TAAACTTG
switch fluorescence ratio: 1.04 ± 0.086

TAAACTTGAC
switch fluorescence ratio: 1.16 ± 0.1

TAAAGAAACT
switch fluorescence ratio: 1.28 ± 0.35

TAAAGAAAGA
switch fluorescence ratio: 1.1 ± 0.23

TAAAGAACAT
switch fluorescence ratio: 0.997 ± 0.057

TAAAGAAGTG
switch fluorescence ratio: 1.01 ± 0.033

TAAAGAGTGT
switch fluorescence ratio: 1.01 ± 0.0042

TAAAGATAAG
switch fluorescence ratio: 0.98 ± 0.024

TAAAGCAGTA
switch fluorescence ratio: 0.995 ± 0.018

TAAAGCGTTT
switch fluorescence ratio: 1.12 ± 0.27

TAAAGCTGCT
switch fluorescence ratio: 0.9705 ± 0.0071

TAAAGGAAGT
switch fluorescence ratio: 0.983 ± 0.04

TAAAGGAATT
switch fluorescence ratio: 1.05 ± 0.03

TAAAGGCCGT
switch fluorescence ratio: 1.01 ± 0.018

TAAAGGGAAT
switch fluorescence ratio: 1.02 ± 0.056

TAAAGGGATG
switch fluorescence ratio: 0.956 ± 0.017

TAAAGGGGAA
switch fluorescence ratio: 1.01 ± 0.047

TAAAGGGGCA
switch fluorescence ratio: 1 ± 0.028

TAAAGGGGTT
switch fluorescence ratio: 0.986 ± 0.035

TAAAGGTAGT
switch fluorescence ratio: 1 ± 0.032

TAAAGGTCTT
switch fluorescence ratio: 1.01 ± 0.016

TAAAGGTGAA
switch fluorescence ratio: 1.077 ± 0.0066

TAAAGTAGTT
switch fluorescence ratio: 1.01 ± 0.044

TAAAGTGGCT
switch fluorescence ratio: 0.985 ± 0.03

TAAAGTTTAG
switch fluorescence ratio: 1.02 ± 0.015

TAAATAATCG
switch fluorescence ratio: 0.968 ± 0.038

TAAATAATTG
switch fluorescence ratio: 1.008 ± 0.0069

TAAATAATTT
switch fluorescence ratio: 1.01 ± 0.028

TAAATAGTGG
switch fluorescence ratio: 0.987 ± 0.013

TAAATATGTG
switch fluorescence ratio: 0.986 ± 0.021

TAAATGGCCA
switch fluorescence ratio: 0.9798 ± 0.0051

TAAATGGCGT
switch fluorescence ratio: 1.01 ± 0.033

TAAATTAGCC
switch fluorescence ratio: 1.03 ± 0.014

TAAATTATGT
switch fluorescence ratio: 0.9816 ± 0.0076

TAAATTATTG
switch fluorescence ratio: 0.9768 ± 0.0079

TAAATTGATA
switch fluorescence ratio: 0.9924 ± 0.0055

TAAATTGATG
switch fluorescence ratio: 1.036 ± 0.0049

TAAATTTAAG
switch fluorescence ratio: 1 ± 0.027

TAAATTTTAG
switch fluorescence ratio: 1.007 ± 0.0026

TAAATTTTAT
switch fluorescence ratio: 1.012 ± 0.0058

TAAATTTTTC
switch fluorescence ratio: 1.042 ± 0.008

TAACAATATT
switch fluorescence ratio: 0.99495 ± 0.00094

TAACAATTAA
switch fluorescence ratio: 1.03 ± 0.058

TAACAATTGT
switch fluorescence ratio: 1.12 ± 0.18

TAACAGAGTG
switch fluorescence ratio: 1 ± 0.023

TAACAGGAAT
switch fluorescence ratio: 0.966 ± 0.042

TAACAGGCGG
switch fluorescence ratio: 0.991 ± 0.028

TAACAGGTAG
switch fluorescence ratio: 1.05 ± 0.035

TAACAGGTAT
switch fluorescence ratio: 1 ± 0.046

TAACATGGCC
switch fluorescence ratio: 1 ± 0.022

TAACCACCTT
switch fluorescence ratio: 1.12 ± 0.044

TAACCAGTTA
switch fluorescence ratio: 1.04 ± 0.019

TAACCCGGGC
switch fluorescence ratio: 1.03 ± 0.066

TAACCTACCG
switch fluorescence ratio: 1.41 ± 0.037

TAACGAACGC
switch fluorescence ratio: 1.65 ± 0.086

TAACGCCCTA
switch fluorescence ratio: 1.07 ± 0.019

TAACGCCGTG
switch fluorescence ratio: 1.02 ± 0.029

TAACGCTGCC
switch fluorescence ratio: 1.25 ± 0.12

TAACGGCATG
switch fluorescence ratio: 1.031 ± 0.0035

TAACGGGTTG
switch fluorescence ratio: 1.03 ± 0.029

TAACGTATGT
switch fluorescence ratio: 0.9929 ± 0.0046

TAACGTTTAT
switch fluorescence ratio: 1.01 ± 0.032

TAACTAAATT
switch fluorescence ratio: 0.98675 ± 0.00031

TAACTCAAGA
switch fluorescence ratio: 0.9979 ± 0.0066

TAACTGGGTT
switch fluorescence ratio: 1.02 ± 0.036

TAACTTATAA
switch fluorescence ratio: 0.991 ± 0.0024

TAAGAAAGTT
switch fluorescence ratio: 1.41 ± 0.58

TAAGAAGTCT
switch fluorescence ratio: 1.04 ± 0.048

TAAGAATTCG
switch fluorescence ratio: 1.04 ± 0.056

TAAGAATTTG
switch fluorescence ratio: 1.22 ± 0.34

TAAGACATTT
switch fluorescence ratio: 1.03 ± 0.04

TAAGAGAATT
switch fluorescence ratio: 1.02 ± 0.023

TAAGAGAGAA
switch fluorescence ratio: 0.986 ± 0.021

TAAGAGATTG
switch fluorescence ratio: 1.01 ± 0.022

TAAGAGCAGG
switch fluorescence ratio: 1.1 ± 0.091

TAAGAGGCGC
switch fluorescence ratio: 0.958 ± 0.077

TAAGAGGGGA
switch fluorescence ratio: 1.01 ± 0.027

TAAGAGGGTC
switch fluorescence ratio: 0.999 ± 0.041

TAAGAGGGTT
switch fluorescence ratio: 1 ± 0.022

TAAGATAGGA
switch fluorescence ratio: 0.982 ± 0.013

TAAGATAGTA
switch fluorescence ratio: 0.993 ± 0.023

TAAGATCTGG
switch fluorescence ratio: 1.006 ± 0.0021

TAAGATGACG
switch fluorescence ratio: 1.13 ± 0.05

TAAGATGAGA
switch fluorescence ratio: 0.936 ± 0.0097

TAAGATTCGG
switch fluorescence ratio: 0.968 ± 0.015

TAAGATTGTA
switch fluorescence ratio: 0.993 ± 0.032

TAAGCAGAGG
switch fluorescence ratio: 1.17 ± 0.13

TAAGCATATG
switch fluorescence ratio: 1.011 ± 0.0037

TAAGCCATCT
switch fluorescence ratio: 1.04 ± 0.054

TAAGCGATCA
switch fluorescence ratio: 1.02 ± 0.018

TAAGCGGAAT
switch fluorescence ratio: 1.03 ± 0.013

TAAGCTTTTT
switch fluorescence ratio: 1 ± 0.033

TAAGGATATG
switch fluorescence ratio: 1.01 ± 0.0069

TAAGGATTGT
switch fluorescence ratio: 1.032 ± 0.0063

TAAGGCCTGT
switch fluorescence ratio: 0.9978 ± 0.0099

TAAGGCTTAT
switch fluorescence ratio: 0.988 ± 0.016

TAAGGGAAAT
switch fluorescence ratio: 1 ± 0.065

TAAGGGCAAA
switch fluorescence ratio: 1.02 ± 0.032

TAAGGGCCTT
switch fluorescence ratio: 0.992 ± 0.026

TAAGGGCGGA
switch fluorescence ratio: 1.01 ± 0.023

TAAGGGGAAT
switch fluorescence ratio: 1 ± 0.039

TAAGGGGATA
switch fluorescence ratio: 1.06 ± 0.11

TAAGGGGATC
switch fluorescence ratio: 0.987 ± 0.059

TAAGGGGGG
switch fluorescence ratio: 1.01 ± 0.029
